Assay results published in patent US20090227507A1, “Angiotensin (1-7) Dosage Forms and Uses Thereof” (UNIVERSITY OF SOUTHERN CALIFORNIA, priority 2008, published 2009).
“Also recorded” adds a separate entry of the source.

Test: Adverse events, safety and tolerability in healthy men
[1] = 200 μg/kg group, of the 7 events
[2] = 300 μg/kg group, of the 13 events

Text: Safety: Safety and tolerance evaluations included: • Tolerability including local reactions at the injection site. • Vital signs (blood pressure [BP], pulse rate [PR], respiration rate [RR], and temperature). • Routine clinical laboratory tests (hematology, serum biochemistry, and urinalysis). • Recording of adverse events (AE). • Electrocardiograms (ECG) at baseline and Day 8.
Descriptive statistics were used to summarize adverse events (AEs). Descriptive statistics, with change from baseline, were used for clinical laboratory results, vital signs, and flow cytometry data. Shift tables were prepared for clinical laboratory results. Other data are listed.
Safety evaluations are based on AEs, PEs, vital signs, temperature, and laboratory results from baseline to study completion. Laboratory measurements were conducted by a local clinical laboratory. Using standard procedures, blood samples were drawn or urine collected from subjects for the following laboratory tests:
All AEs were coded using the Medical Dictionary for Regulatory Activities Version 5.1 (MedDRA®).

## Asp-Arg-Val-Tyr-Ile-His-Pro [USB003]
200 μg/kg
  incidence of ALT increase: 22.2%
  incidence of body temperature increase: 0.0%
200 μg/kg (N = 9)
  ALT increased, Events: 2
  ALT increased, Subjects: 2 (22.2) N (%)
  AST increased, Events: 1
  AST increased, Subjects: 1 (11.1) N (%)
  Body temperature increased, Events: 0
  Body temperature increased, Subjects: 0 (0.0) N (%)
  Cyst NOS, Events: 1
  Cyst NOS, Subjects: 1 (11.1) N (%)
  Gastroesophageal reflux, Events: 0
  Gastroesophageal reflux, Subjects: 0 (0.0) N (%)
  Gastrointestinal disorders, Events: 0
  Gastrointestinal disorders, Subjects: 0 (0.0) N (%)
  Headache, Events: 0
  Headache, Subjects: 0 (0.0) N (%)
  Infections/Infestations, Events: 0
  Injury, poisoning and procedural complications, Events: 0
  Injury, poisoning and procedural complications, Subjects: 0 (0.0) N (%)
  Investigations, Events: 4
  Investigations, Subjects: 2 (22.2) N (%)
  Joint sprain, Events: 0
  Joint sprain, Subjects: 0 (0.0) N (%)
  Nasal congestion, Events: 1
  Nasal congestion, Subjects: 1 (11.1) N (%)
  Nausea, Events: 0
  Nausea, Subjects: 0 (0.0) N (%)
  Neoplasms benign, Events: 1
  Neoplasms benign, Subjects: 1 (11.1) N (%)
  Nervous system disorders, Events: 0
  Nervous system disorders, Subjects: 0 (0.0) N (%)
  Neutrophil count increased, Events: 0
  Neutrophil count increased, Subjects: 0 (0.0) N (%)
  Pharyngitis, Events: 1
  Pharyngitis, Subjects: 1 (11.1) N (%)
  Respiratory, thoracic and mediastinal disorders, Events: 2
  Respiratory, thoracic and mediastinal disorders, Subjects: 1 (11.1) N (%)
  Subjects With At Least 1 AE, Events: 7
  Subjects With At Least 1 AE, Subjects: 4 (44.4) N (%)
  WBC increased, Events: 1
  WBC increased, Subjects: 1 (11.1) N (%)
  White blood cells in urine, Events: 0
  White blood cells in urine, Subjects: 0 (0.0) N (%)
200 μg/kg dose group
  subjects with clinically significant (CS) out-of-range laboratory values: 3
  total CS laboratory abnormalities: 6
200 μg/kg group
  incidence of AEs: 44.4%
[1]
  AE events assessed as doubtful relationship to study drug: 3
  AE events assessed as not related to study drug: 2
  AE events assessed as possible relationship to study drug: 2
200 μg/kg, Day 7, resolved without treatment on Study Day 10
  adverse event, Subject 028: cystic nodule on their anterior abdominal wall
300 μg/kg
  incidence of ALT increase: 0.0%
  incidence of body temperature increase: 50%
300 μg/kg (N = 8)
  ALT increased, Events: 0
  ALT increased, Subjects: 0 (0.0) N (%)
  AST increased, Events: 1
  AST increased, Subjects: 1 (12.5) N (%)
  Body temperature increased, Events: 7
  Body temperature increased, Subjects: 4 (50.0) N (%)
  Cyst NOS, Events: 0
  Cyst NOS, Subjects: 0 (0.0) N (%)
  Gastroesophageal reflux, Events: 0
  Gastroesophageal reflux, Subjects: 0 (0.0) N (%)
  Gastrointestinal disorders, Events: 1
  Gastrointestinal disorders, Subjects: 1 (12.5) N (%)
  Headache, Events: 0
  Headache, Subjects: 1 (12.5) N (%)
  Infections/Infestations, Events: 1
  Injury, poisoning and procedural complications, Events: 1
  Injury, poisoning and procedural complications, Subjects: 1 (12.5) N (%)
  Investigations, Events: 9
  Investigations, Subjects: 4 (50.0) N (%)
  Joint sprain, Events: 1
  Joint sprain, Subjects: 1 (12.5) N (%)
  Nasal congestion, Events: 0
  Nasal congestion, Subjects: 0 (0.0) N (%)
  Nausea, Events: 1
  Nausea, Subjects: 1 (12.5) N (%)
  Neoplasms benign, Events: 0
  Neoplasms benign, Subjects: 0 (0.0) N (%)
  Nervous system disorders, Events: 0
  Nervous system disorders, Subjects: 1 (12.5) N (%)
  Neutrophil count increased, Events: 1
  Neutrophil count increased, Subjects: 1 (12.5) N (%)
  Pharyngitis, Events: 0
  Pharyngitis, Subjects: 0 (0.0) N (%)
  Respiratory, thoracic and mediastinal disorders, Events: 0
  Respiratory, thoracic and mediastinal disorders, Subjects: 0 (0.0) N (%)
  Subjects With At Least 1 AE, Events: 13
  Subjects With At Least 1 AE, Subjects: 4 (50.0) N (%)
  WBC increased, Events: 0
  WBC increased, Subjects: 0 (0.0) N (%)
  White blood cells in urine, Events: 0
  White blood cells in urine, Subjects: 0 (0.0) N (%)
300 μg/kg dose group
  subjects with clinically significant (CS) out-of-range laboratory values: 1
  total CS laboratory abnormalities: 2
300 μg/kg dose group, temperature >37.7° C.
  subjects with elevations in oral body temperature assessed as an AE: 4
300 μg/kg group
  incidence of AEs: 50.0%
[2]
  AE events assessed as doubtful relationship to study drug: 2
  AE events assessed as not related to study drug: 3
  AE events assessed as possible relationship to study drug: 8
300 μg/kg, Day 2
  onset of headache after the morning dose, Subject 053: 10 h
  time to resolution of headache without treatment, Subject 053: 5 h
300 μg/kg, study Day 18
  severity of ankle sprain, Subject 046: Grade 2
SC doses of 200 and 300 μg/kg
  deaths or serious adverse events: no deaths or other serious adverse events; also recorded: no deaths or SAEs
  discontinuation from the study because of an AE: no subject discontinued from the study because of an AE; also recorded: no AE led to withdrawal from the study
  safety and tolerability: safe and well tolerated
Whole study
  CTC scores of AEs: no AEs with CTC scores of Grade 3 or higher and only 1 Grade 2 toxicity
